Experimental data: US20180066058A1 (published 2018)

T1: mouse ICOS-mFc (Chimerigen) (mouse, UniProt Q9WVS0 21-141, limits assumed)
T1 construct: also called mouse ICOS receptor; mouse ICOS Receptor; not shown: mouse Fc of the bought construct
T1 sequence: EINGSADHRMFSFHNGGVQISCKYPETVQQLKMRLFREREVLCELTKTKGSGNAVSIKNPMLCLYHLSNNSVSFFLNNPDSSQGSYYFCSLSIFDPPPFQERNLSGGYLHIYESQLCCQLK

T2: human ICOS-mFc (Chimerigen) (human, UniProt Q9Y6W8 21-140)
T2 construct: also called human ICOS receptor; human ICOS Receptor; not shown: mouse Fc of the bought construct
T2 sequence: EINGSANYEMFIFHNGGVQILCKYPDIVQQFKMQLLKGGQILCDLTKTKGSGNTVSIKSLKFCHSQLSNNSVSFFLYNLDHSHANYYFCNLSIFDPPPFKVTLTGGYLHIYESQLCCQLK

T3: Human ICOS extracellular domain fused to human Fc (human, UniProt Q9Y6W8 21-140)
T3 construct: Dimeric protein made in house from NCBI NP_036224.1; also called hICOS; hICOS Fc; not shown: human Fc region
T3 sequence: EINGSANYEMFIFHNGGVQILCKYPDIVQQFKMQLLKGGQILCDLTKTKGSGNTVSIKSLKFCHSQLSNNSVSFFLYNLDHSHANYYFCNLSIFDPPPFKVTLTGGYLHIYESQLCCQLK

T4: Mouse ICOS extracellular domain fused to human Fc (mouse, UniProt Q9WVS0 21-141)
T4 construct: Made in house from NCBI NP_059508.2; also called mICOS; mICOS Fc; not shown: human Fc region
T4 sequence: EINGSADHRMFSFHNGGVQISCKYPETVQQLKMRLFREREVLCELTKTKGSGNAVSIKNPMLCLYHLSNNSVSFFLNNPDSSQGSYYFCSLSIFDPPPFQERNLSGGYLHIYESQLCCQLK


Tests used:
[1] = target: T1, mouse ICOS-mFc (Chimerigen); experiment: HTRF neutralisation of Alexa 647 mouse B7-H2 binding to mouse ICOS-mFc; human IgG4.PE; mean, n = 3
Method: (§1) 5 μl of ICOS receptor (human ICOS-mFc, 20 nM, 5 nM final or mouse ICOS-mFc 4 nM, 1 nM final (Chimerigen)) was added to required wells. Plate was incubated for 1 hr at room temperature (RT).
(§2) Finally, 5 μl of anti-mouse IgG donor mAb (Southern Biotech) labelled with europium cryptate (Cis Bio), 40 nM, 10 nM final was added to each well and the assay was left in the dark at RT to incubate for a further 2 hours. After incubation, assay was read on Envision plate reader (Perkin Elmer) using a standard HTRF protocol. […] Titration curves and IC50 values [M] were plotted using Graphpad (Prism). IC50 values were calculated by first transforming the data using equation X=Log(X). The transformed data was then fitted using nonlinear regression, using fitting algorithm, log (inhibitor) vs. response—variable slope (four parameters).

[2] = target: T2, human ICOS-mFc (Chimerigen); experiment: HTRF neutralisation of Alexa 647 human B7-H2 binding to human ICOS-mFc; human IgG4.PE; mean, n = 4
Method: as §1, §2

[3] = target: T3, Human ICOS extracellular domain fused …; experiment: SPR (ProteOn XPR36), Fc-tagged ICOS captured on anti-human IgG, Fab analyte, 25 C
Method: (§3) Fab affinities of the ICOS leads were generated by SPR using the ProteOn XPR3 6 (BioRad). An anti-human IgG capture surface was created on a GLC biosensor chip by primary amine coupling, immobilising three anti-human IgG antibodies (Jackson Labs 109-005-008, 109-006-008 and 309-006-008). […] Binding sensorgrams were double referenced using a buffer injection (i.e. 0 nM), and the data was fitted to the 1:1 model inherent to the ProteOn XPR36 analysis software. The assay was run at 25° C. and using HBS-EP as running buffer.

[4] = target: T4, Mouse ICOS extracellular domain fused …; experiment: as above
Method: as §3

[5] = target: T2, human ICOS-mFc (Chimerigen); experiment: HTRF neutralisation of Alexa 647 human B7-H2 binding to human ICOS-mFc; human IgG1; mean, n = 4
Method: as §1, §2

[6] = target: T1, mouse ICOS-mFc (Chimerigen); experiment: HTRF neutralisation of Alexa 647 mouse B7-H2 binding to mouse ICOS-mFc; human IgG1; mean, n = 3
Method: as §1, §2

[7] = target: T3, Human ICOS extracellular domain fused …; experiment: SPR (ProteOn XPR36), human ICOS ECD-Fc captured, Fab analyte, pH 7.4, 37 C
Method: (§4) In addition, a comparison was performed of antibody:antigen binding affinity at different pH values. As before, the dimeric human ICOS protein, presented as the extracellular domain of ICOS fused to a human Fc region, was captured on the anti-human Fc capture surface created using the 3 antibody cocktail, immobilised on the GLC biosensor chip by primary amine coupling. SPR analysis of recombinantly expressed anti-ICOS Fabs was carried out on the ProteOn XPR36 Array system (Biorad). The Fab fragments were used as analyte to generate binding sensorgrams, which were double referenced with a buffer injection (i.e., 0 nM). The subsequent referenced sensorgrams were fitted to the 1:1 model inherent to the ProteOn analysis software. […] Data were fitted to the 1:1 model.

[8] = target: T3, Human ICOS extracellular domain fused …; experiment: SPR (ProteOn XPR36), human ICOS ECD-Fc captured, Fab analyte, pH 5.5, 37 C
Method: as §4

Binder | IC50 [1] [nM] | IC50 [2] [nM] | IC50 [5] [nM] | IC50 [6] [nM] | also measured
STIM001 human IgG4.PE (antibody, V domains shown, Human IgG4.PE (null-effector) format) VH: QVQVVQSGAEVKKPGASVKVSCKASGYTFSTFGITWVRQAPGQGLEWMGWISAYNGDTNYAQNLQGRVIMTTDTSTSTAYMELRSLRSDDTAVYYCARSSGHYYYYGMDVWGQGTTVTVSS VL: DIVMTQSPLSLPVTPGEPASISCRSSQSLLHSNEYNYLDWYLQKPGQSPQLLIFLGSNRASGVPDRFSGSGSGTDFTLKITRVEAEDVGIYYCMQSLQTPLTFGGGTKVEIK | 4.7 | 1.3 |  |  | 
STIM006 Fab (Fab, V domains shown, Purified Fab) VH: QVQLVESGGGLVKPGGSLRLSCAASGFTFSDYFMSWIRQAPGKGLEWISYISSSGSTIYYADSVRGRFTISRDNAKYSLYLQMNSLRSEDTAVYYCARDHYDGSGIYPLYYYYGLDVWGQGTTVTVSS VL: not shown |  |  |  |  | Kd [3]: 13.8 nM; Kd [4]: 318 nM
STIM006 human IgG1 (antibody, V domains shown, Human IgG1 format) VH: QVQLVESGGGLVKPGGSLRLSCAASGFTFSDYFMSWIRQAPGKGLEWISYISSSGSTIYYADSVRGRFTISRDNAKYSLYLQMNSLRSEDTAVYYCARDHYDGSGIYPLYYYYGLDVWGQGTTVTVSS VL: not shown |  |  | 2.2 |  | 
STIM005 human IgG4.PE (antibody, V domains shown, Human IgG4.PE (null-effector) format) VH: QVQLVQSGAEVKKPGASVKVSCKASGYTFNSYGIIWVRQAPGQGLEWMGWISVHNGNTNCAQKLQGRVTMTTDTSTSTAYMELRSLRTDDTAVYYCARAGYDILTDFSDAFDIWGHGTMVTVSS VL: DIQMTQSPSSLSASVGDRVTITCRASQNINNFLNWYQQKEGKGPKLLIYAASSLQRGIPSTFSGSGSGTDFTLTISSLQPEDFATYICQQSYGIPWVGQGTKVEIK | 0.3 | 1.6 |  |  | 
STIM005 human IgG1 (antibody, V domains shown, Human IgG1 format) VH: QVQLVQSGAEVKKPGASVKVSCKASGYTFNSYGIIWVRQAPGQGLEWMGWISVHNGNTNCAQKLQGRVTMTTDTSTSTAYMELRSLRTDDTAVYYCARAGYDILTDFSDAFDIWGHGTMVTVSS VL: DIQMTQSPSSLSASVGDRVTITCRASQNINNFLNWYQQKEGKGPKLLIYAASSLQRGIPSTFSGSGSGTDFTLTISSLQPEDFATYICQQSYGIPWVGQGTKVEIKR |  |  | 2.5 | 0.3 | 
STIM009 human IgG1 (antibody, V domains shown, Human IgG1 format) VH: QVQLVESGGGLVKPGGSLRLSCAASGFTFSDYYMSWIRQAPGKGLEWVSYISSSGSTIYYADSVKGRFTISRDNAKNSLYLQINSLRAEDTAVYYCARDFYDILTDSPYFYYGVDVWGQGTTVTVSS VL: not shown |  |  | 30.5 |  | 
STIM009 human IgG4.PE (antibody, V domains shown, Human IgG4.PE (null-effector) format) VH: QVQLVESGGGLVKPGGSLRLSCAASGFTFSDYYMSWIRQAPGKGLEWVSYISSSGSTIYYADSVKGRFTISRDNAKNSLYLQINSLRAEDTAVYYCARDFYDILTDSPYFYYGVDVWGQGTTVTVSS VL: not shown |  | 4.6 |  |  | 
STIM003 human IgG4.PE (antibody, V domains shown, Human IgG4.PE (null-effector) format) VH: EVQLVESGGGVVRPGGSLRLSCVASGVTFDDYGMSWVRQAPGKGLEWVSGINWNGGDTDYSDSVKGRFTISRDNAKNSLYLQMNSLRAEDTALYYCARDFYGSGSYYHVPFDYWGQGILVTVSS VL: EIVLTQSPGTLSLSPGERATLSCRASQSVSRSYLAWYQQKRGQAPRLLIYGASSRATGIPDRFSGDGSGTDFTLSISRLEPEDFAVYYCHQYDMSPFTFGPGTKVDIK | 0.2 | 1.2 |  |  | 
STIM004 human IgG1 (antibody, V domains shown, Human IgG1 format) VH: EVQLVESGGGVVRPGGSLRLSCAASGLTFDDYGMSWVRQVPGKGLEWVSGINWNGDNTDYADSVKGRFTISRDNAKNSLYLQMNSLRAEDTALYYCARDYYGSGSYYNVPFDYWGQGTLVTVSS VL: not shown |  |  | 233 | 22.1 | 
STIM002-B human IgG4.PE (antibody, V domains shown, Human IgG4.PE (null-effector) format) VH: QVQLVQSGGEVKKPGASVKVSCKASGYTFTSYGFSWVRQAPGQGLEWMGWISAYNGNTNYAQKLQGRVTMTTDTSTSTAYMELRSLRSDDTAVYYCARSTYFYGSGTLYGMDVWGQGTTVTVSS VL: DIVMTQSPLSLPVTPGEPASISCRSSQSLLHSDGYNCLDWYLQKPGQSPQLLIYLGSTRASGFPDRFSGSGSGTDFTLKISRVEAEDVGVYYCMQALQTPCSFGQGTKLEIK | 43.9 | 3.4 |  |  | 
STIM002 human IgG1 (antibody, V domains shown, Human IgG1 format) VH: QVQLVQSGGEVKKPGASVKVSCKASGYTFTSYGFSWVRQAPGQGLEWMGWISAYNGNTNYAQKLQGRVTMTTDTSTSTAYMELRSLRSDDTAVYYCARSTYFYGSGTLYGMDVWGQGTTVTVSS VL: DIVMTQSPLSLPVTPGEPASISCRSSQSLLHSDGYNYLDWYLQKPGQSPQLLIYLGSTRASGFPDRFSGSGSGTDFTLKISRVEAEDVGVYYCMQALQTPLSFGQGTKLEIKR |  |  | 1.9 | 6.9 | 
STIM002-B human IgG1 (antibody, V domains shown, Human IgG1 format) VH: QVQLVQSGGEVKKPGASVKVSCKASGYTFTSYGFSWVRQAPGQGLEWMGWISAYNGNTNYAQKLQGRVTMTTDTSTSTAYMELRSLRSDDTAVYYCARSTYFYGSGTLYGMDVWGQGTTVTVSS VL: DIVMTQSPLSLPVTPGEPASISCRSSQSLLHSDGYNCLDWYLQKPGQSPQLLIYLGSTRASGFPDRFSGSGSGTDFTLKISRVEAEDVGVYYCMQALQTPCSFGQGTKLEIKR |  |  | 3.6 | 30 | 
STIM002-B Fab (Fab, V domains shown, Recombinantly expressed purified Fab) VH: QVQLVQSGGEVKKPGASVKVSCKASGYTFTSYGFSWVRQAPGQGLEWMGWISAYNGNTNYAQKLQGRVTMTTDTSTSTAYMELRSLRSDDTAVYYCARSTYFYGSGTLYGMDVWGQGTTVTVSS VL: DIVMTQSPLSLPVTPGEPASISCRSSQSLLHSDGYNCLDWYLQKPGQSPQLLIYLGSTRASGFPDRFSGSGSGTDFTLKISRVEAEDVGVYYCMQALQTPCSFGQGTKLEIK |  |  |  |  | Kd [7]: 41.8 nM; Kd [8]: 26.6 nM
